The target of assay [1] is T1, ApoL1 Protein, human recombinant (Sino Biological 13910-H08B) (human, UniProt O14791 28-398).
T1 construct: also called rApoL1; recombinant ApoL1
T1 sequence: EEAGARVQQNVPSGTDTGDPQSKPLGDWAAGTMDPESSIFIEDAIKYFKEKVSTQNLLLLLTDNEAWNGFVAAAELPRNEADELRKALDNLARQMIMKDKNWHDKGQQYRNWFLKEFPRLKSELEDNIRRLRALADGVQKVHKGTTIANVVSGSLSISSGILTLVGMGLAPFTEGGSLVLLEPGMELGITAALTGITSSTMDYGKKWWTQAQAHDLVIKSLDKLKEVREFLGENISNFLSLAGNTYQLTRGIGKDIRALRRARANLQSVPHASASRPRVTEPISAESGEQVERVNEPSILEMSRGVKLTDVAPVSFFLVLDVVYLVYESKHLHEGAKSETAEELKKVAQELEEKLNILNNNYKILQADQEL
In words: Western blot of recombinant ApoL1 (SDS-PAGE, non-reducing and reducing). In general terms: A western blot detects proteins with antibodies after separation by electrophoresis.

Assay [2] addresses T1, ApoL1 Protein, human recombinant (Sino …). Description: bridging ELISA control without bsAb (bsAb-): immobilized ApoL1, then rabbit Fc tagged BCMA, detected with anti-rabbit HRP. On the procedure:
Enzyme-Linked Immunosorbent Assay (ELISA) plates were prepared by incubating them overnight at 4° C. with their respective immobilization buffer (bicarbonate/carbonate coating buffer 100 mM) or blocking buffer (PBS, 0.1% Tween-20, 1% BSA).
For the bridging ELISA experiments, ApoL1 (Sino Cat.13910-H08B) or BCMA (Sino Cat. 10620-H15H) were resuspended at a 1:10,000 dilution in ELISA binding buffer (1×PBST+1% BSA) and then incubated overnight at 4° C. ApoL1 was immobilized across all conditions except where BCMA was immobilized as a primary protein (ApoL1-*). Following immobilization, 100 μl of bispecific antibody (bsAb, […] in ELISA blocking buffer) was added and allowed to incubate for 1 hour at 37° C. Subsequently, each well underwent four rounds of 150 μl washes with 1×PBST. Next, 1 μg/mL rabbit Fc tagged BCMA in ELISA blocking buffer was allowed to incubate for 1 hr at 37° C. followed by four more rounds of 150 μl 1×PBST washes. A secondary binding component, anti-rabbit HRP, was added at 1:10,000 and the plate was incubated for an additional hour at 37° C. followed by another four rounds of 150 μl washes with 1×PBST. […] The reaction was halted by adding 50 μl of Stop Solution, and the absorbance was promptly measured at 450 nm on a SpectraMax iD3 plate reader ([…]).
(In general: ELISA stands for enzyme-linked immunosorbent assay.)

Assay [3] addresses T2, native human Apolipoprotein L1 (ApoL1), in purified TLF / HDL float / normal human serum / endogenous in … (human, UniProt O14791 28-398).
T2 construct: Secreted native protein carried on HDL/TLF particles; also called Native ApoL1; endogenous ApoL1
T2 sequence: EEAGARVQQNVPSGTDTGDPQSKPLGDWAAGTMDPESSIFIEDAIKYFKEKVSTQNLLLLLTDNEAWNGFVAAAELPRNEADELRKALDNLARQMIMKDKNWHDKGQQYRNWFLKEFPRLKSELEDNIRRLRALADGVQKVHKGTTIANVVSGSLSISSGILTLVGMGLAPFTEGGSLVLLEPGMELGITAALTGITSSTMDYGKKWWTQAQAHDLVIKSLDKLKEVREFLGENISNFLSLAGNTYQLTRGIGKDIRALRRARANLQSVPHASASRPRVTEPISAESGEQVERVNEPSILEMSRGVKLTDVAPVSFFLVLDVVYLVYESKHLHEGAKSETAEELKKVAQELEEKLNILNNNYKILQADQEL
Description: Western blot of column purified TLF (2 ug), non-reducing and reducing.

The target of assay [4] is T1, ApoL1 Protein, human recombinant (Sino …). Description: dot blot (native).
Assay [5] shares this target. In words: imaging flow cytometry: RPMI 8226 cells pre-incubated with 30 µg/mL bsAb or isotype control, then Alexa-488 labeled recombinant ApoL1. As for the experimental part: Cells were prepared as above with the addition of 15 μg/mL unlabeled ApoL1 in the blocking buffer for overnight incubation. After blocking, cells were washed 2 times with CSB and aliquoted to 50 μl aliquots for each reaction. First, bsAb or isotype control was added at 30 μg/mL for 1.5 hours, followed by 2 washes and […] of Alexa labeled ApoL1-488. Cells were incubated for 1 hour and washed 3 times with the final wash resuspended in 50 μl of CSB.
Imaging flow cytometry acquisition was performed on an ImageStream X MK II (Luminex Corporation, Seattle, Washington) with fluidics set at low speed, sensitivity set to high, magnification set to 60×, and illumination set to: 405:120 mW, 488:200 mW, 561:200 mW, 642:150 mW, SSC:4.38 mW. All samples were acquired using the autosampler with INSPIRE software for an acquisition time of 4000 events or 8 minutes per sample, with events counting SSC channel from 5.2×10\hat{ }5 to 8.9×10\hat{ }7. Gates were set and quantified using IDEAS software version 6.2.
Next, Alexa-488 labeled recombinant ApoL1 was used to determine if cell bound bsAb can bind ApoL1. Some background binding of labeled ApoL1 to cells without bsAb, likely due to existing binding affinities for ApoL1 to cell membranes, was foreseen. […]
On the technique in general: A flow cytometer gives signals particle by particle.

In assay [6] the target is T3, BCMA on RPMI 8226 (ATCC CCL-155) multiple myeloma cells (UniProt Q02223 1-184, limits assumed).
T3 construct: whole, on cells; No BCMA-negative cell control is reported; also called MM cells
T3 sequence (looked up): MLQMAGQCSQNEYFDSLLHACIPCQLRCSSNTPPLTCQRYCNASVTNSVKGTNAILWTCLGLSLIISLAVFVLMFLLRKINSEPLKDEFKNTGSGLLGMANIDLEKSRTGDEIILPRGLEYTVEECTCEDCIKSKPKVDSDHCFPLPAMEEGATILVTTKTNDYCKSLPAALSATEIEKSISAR
Description: imaging flow cytometry on fixed RPMI 8226 cells; Alexa-488 labeled bsAb at 3 µg/mL against Alexa-488 labeled human IgG1 isotype control. As for the experimental part: Cells were cultured according to standard protocols. All cell pelleting were performed at 300× g for 5 minutes at 4 C. One to two days prior to the experiment, cells were washed and split to achieve a cell density of approximately […] in a total volume of 10-30 mL containing 10 nM LY411575 (LY). On the day of the experiment, Zombie NIR dye (BioLegend Cat. 423106) was diluted 1:100 in phosphate-buffered saline (PBS). Cells were washed and resuspended in PBS with Zombie NIR dye at a concentration of 1×10\hat{ }7 cells/mL and incubated for 10 minutes at room temperature. […]
Imaging flow cytometry acquisition was performed on an ImageStream X MK II (Luminex Corporation, Seattle, Washington) with fluidics set at low speed, sensitivity set to high, magnification set to 60×, and illumination set to: 405:120 mW, 488:200 mW, 561:200 mW, 642:150 mW, SSC:4.38 mW. […] Gates were set and quantified using IDEAS software version 6.2.
Imaging flow cytometry was used as an assay to determine if the ApoL1-BCMA-bsAb (bsAb) of Example 8 binds the two intended targets in vitro. First, the bsAb and a human IgG1 isotype control were Alexa-488 labeled and binding affinities were determined by measuring total cellular florescence after incubation. […]

B1: recombinant anti-Hpr antibody, clone SFII 134.3 (antibody, V domains shown)
VH: QIQLVQSGPELKKPGETVKISCKASGYIFTNYGMNWVRQAPGKGLKWMGWINSYTGEATYTDDLKGRFAFSLESSASTAYLQINNLKNEDTATYFCAREGYGDYGYSFDYWGQGTTLTVSS
VL: DIQMTQSPASLSASVGETVTITCRATKNIYTYLAWYQQKQGKSPQFLVYNAKTLAEGVPSRFSGSGSGTQFSLKINSLQPEDFGNYYCQHHYGTPRTFGGGTKLEIK
notes: Recombinant form of mouse anti-Hpr clone SFII 134.3; it was detected with goat anti-mouse secondary; also called recombinant antibody
As to B1, the binding result in assay [1] was “no binding (tested: 1:10,000 dilution of antibody)”.

B2: ascites Prot-G purified anti-Hpr antibody, clone SFII 134.3 (mouse IgG2a) (antibody, V domains shown)
VH: QIQLVQSGPELKKPGETVKISCKASGYIFTNYGMNWVRQAPGKGLKWMGWINSYTGEATYTDDLKGRFAFSLESSASTAYLQINNLKNEDTATYFCAREGYGDYGYSFDYWGQGTTLTVSS
VL: DIQMTQSPASLSASVGETVTITCRATKNIYTYLAWYQQKQGKSPQFLVYNAKTLAEGVPSRFSGSGSGTQFSLKINSLQPEDFGNYYCQHHYGTPRTFGGGTKLEIKR
notes: Hybridoma-derived mouse IgG2a; also called ascites Pro-G purified antibody; purified antibody
With B2, the binding result in assay [1] is recorded as “no binding (tested: 1:10,000 dilution of antibody)”.

B3: BCMA Protein, Human, Recombinant (ECD, rFc Tag) (Sino Biological 10620-H15H) (Fc fusion, UniProt Q02223 1-54, looked up)
chain: MLQMAGQCSQNEYFDSLLHACIPCQLRCSSNTPPLTCQRYCNASVTNSVKGTNA
notes: extracellular domain; Bought protein; also called recombinant BCMA; rabbit Fc tagged BCMA; not shown: rabbit Fc tag
Consider B3, for which the binding result in assay [2] was “no binding (tested: 1 µg/mL rabbit Fc tagged BCMA)”.

B4: ascites Prot-G purified anti-ApoL1 antibody, clone SFIII 13.11 (mouse IgG1) (antibody, V domains shown)
VH: EVQLVESGGGLVKPGGSLKLSCAASGFTFSTYAMSWVRQSPEKRLEWVAEISNGGLYTYYPDTVTGRFTISRDNVKNILYLEMSSLRSEDTAIYYCIRENRNWYFDLWGAGTTVTVSS
VL: DVLMTQTPLSLPVSLGDQASISCRSSQSIVNSNGNTYLEWYLQKPGQSPKLLIYKVSNRFSGVPDRFSGSGSGTDFTLKISRVEAEDLGVYYCFQGSHVPLTFGAGTKLELKR
notes: Hybridoma-derived mouse IgG1; also called ascites Pro-G purified antibody; purified antibody
Consider B4, for which the binding result in assay [3] and in assay [4] was “binds” each time.

B5: Clone 13.11×BCMAscFv: bsAbBCMA/ApoL1, anti-ApoL1, BCMA IgG1-scFv (Heavy Chain C-terminus) bispecific antibody (bispecific antibody)
heavy: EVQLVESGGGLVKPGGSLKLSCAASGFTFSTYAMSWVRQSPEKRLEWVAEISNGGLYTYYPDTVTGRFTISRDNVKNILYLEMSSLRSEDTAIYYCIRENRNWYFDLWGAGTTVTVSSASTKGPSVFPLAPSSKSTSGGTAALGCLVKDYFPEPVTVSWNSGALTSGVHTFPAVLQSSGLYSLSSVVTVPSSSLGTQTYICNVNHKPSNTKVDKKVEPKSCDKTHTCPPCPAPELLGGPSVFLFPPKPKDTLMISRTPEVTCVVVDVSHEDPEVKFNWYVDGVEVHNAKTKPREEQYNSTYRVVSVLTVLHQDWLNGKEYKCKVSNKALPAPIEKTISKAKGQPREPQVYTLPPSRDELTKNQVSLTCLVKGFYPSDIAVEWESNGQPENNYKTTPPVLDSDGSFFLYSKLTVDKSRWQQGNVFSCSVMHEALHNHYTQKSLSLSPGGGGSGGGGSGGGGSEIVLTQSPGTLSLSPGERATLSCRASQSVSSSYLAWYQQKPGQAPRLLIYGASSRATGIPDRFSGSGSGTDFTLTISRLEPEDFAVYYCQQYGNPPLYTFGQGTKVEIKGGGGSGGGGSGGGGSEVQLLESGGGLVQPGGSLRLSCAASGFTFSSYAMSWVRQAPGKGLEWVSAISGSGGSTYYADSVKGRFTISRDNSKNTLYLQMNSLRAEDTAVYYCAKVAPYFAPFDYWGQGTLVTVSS
light: DVLMTQTPLSLPVSLGDQASISCRSSQSIVNSNGNTYLEWYLQKPGQSPKLLIYKVSNRFSGVPDRFSGSGSGTDFTLKISRVEAEDLGVYYCFQGSHVPLTFGAGTKLEIKRTVAAPSVFIFPPSDEQLKSGTASVVCLLNNFYPREAKVQWKVDNALQSGNSQESVTEQDSKDSTYSLSSTLTLSKADYEKHKVYACEVTHQGLSSPVTKSFNRGEC
notes: It was used unlabeled, HRP-labeled or Alexa Fluor 488 labeled, depending on the assay; also called ApoL1-BCMA-bsAb; 488-bsAb
As to B5, the “fold increase in average cell fluorescence compared to isotype control” value in assay [5] is 2 ×. Besides, the “fold increase of measured fluorescence per cell compared to isotype control” value in assay [6] was 20 ×.

Values taken from patent publication US20260071003A1 (UNIVERSITY OF GEORGIA RESEARCH FOUNDATION, published 2026).
